Measurements reported in article PMC9482650, “Quantitative fragmentomics allow affinity mapping of interactomes” (Nature Communications, 2022).

Key:
Experiment in all cases: holdup assay
Set-up in all cases: key: below the threshold = too weak to quantify, mostly under pKd 3.1 to 4
[1] = target: T1, DFNB31_1, Q9P202
T1 sequence (Q9P202 135-233, limits assumed, looked up): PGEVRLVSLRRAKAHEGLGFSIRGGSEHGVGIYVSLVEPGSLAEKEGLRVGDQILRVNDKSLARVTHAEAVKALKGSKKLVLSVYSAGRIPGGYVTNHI

[2] = target: T2, MPDZ_12, O75970
T2 sequence (O75970 1857-1958, limits assumed, looked up): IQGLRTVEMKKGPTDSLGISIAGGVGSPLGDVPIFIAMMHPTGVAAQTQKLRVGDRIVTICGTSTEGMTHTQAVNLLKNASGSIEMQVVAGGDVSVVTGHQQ

[3] = target: Inadl_8, Q8NI35
Inadl_8, Q8NI35, sequence (Q8NI35 1425-1530): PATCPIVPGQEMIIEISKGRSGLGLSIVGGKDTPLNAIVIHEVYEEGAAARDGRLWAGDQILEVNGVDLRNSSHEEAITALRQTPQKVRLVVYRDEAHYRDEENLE

[4] = target: T3, LIN7C, Q9NUP9
T3 sequence (Q9NUP9 88-185, limits assumed, looked up): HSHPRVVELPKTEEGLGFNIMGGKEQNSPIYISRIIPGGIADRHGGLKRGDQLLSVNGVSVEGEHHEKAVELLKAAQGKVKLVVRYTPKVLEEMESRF

[5] = target: Inadl_10, Q8NI35
Inadl_10, Q8NI35, sequence (Q8NI35 1673-1763): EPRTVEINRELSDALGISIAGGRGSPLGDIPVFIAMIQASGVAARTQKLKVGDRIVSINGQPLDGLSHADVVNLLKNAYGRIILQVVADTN

[6] = target: FRMPD4, Q14CM0
FRMPD4, Q14CM0, sequence (Q14CM0 67-160): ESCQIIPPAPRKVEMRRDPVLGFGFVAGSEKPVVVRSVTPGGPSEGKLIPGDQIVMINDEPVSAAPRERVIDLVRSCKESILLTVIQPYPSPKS

[7] = target: T4, RHPN1, Q8TCX5
T4 sequence (Q8TCX5 508-602, limits assumed, looked up): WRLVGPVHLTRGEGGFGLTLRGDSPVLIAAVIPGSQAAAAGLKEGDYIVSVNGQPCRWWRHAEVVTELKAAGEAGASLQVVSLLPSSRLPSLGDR

[8] = target: MAGI1_1, Q96QZ7
MAGI1_1, Q96QZ7, sequence (Q96QZ7 1-106): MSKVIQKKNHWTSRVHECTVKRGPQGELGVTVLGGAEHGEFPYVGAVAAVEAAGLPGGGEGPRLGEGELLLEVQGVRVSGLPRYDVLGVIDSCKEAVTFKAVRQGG

[9] = target: T5, SYNJ2BP, P57105
T5 sequence (P57105 8-110, limits assumed, looked up): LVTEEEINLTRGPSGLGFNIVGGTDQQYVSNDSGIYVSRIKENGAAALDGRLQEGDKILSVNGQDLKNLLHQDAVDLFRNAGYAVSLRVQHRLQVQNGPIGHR

[10] = target: T6, TJP3_3, O95049
T6 sequence (O95049 375-456, limits assumed, looked up): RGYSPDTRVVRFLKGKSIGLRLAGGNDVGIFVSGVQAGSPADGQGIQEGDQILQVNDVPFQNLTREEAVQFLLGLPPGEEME

[11] = target: SCRIB_2, Q14160
SCRIB_2, Q14160, sequence (Q14160 857-960): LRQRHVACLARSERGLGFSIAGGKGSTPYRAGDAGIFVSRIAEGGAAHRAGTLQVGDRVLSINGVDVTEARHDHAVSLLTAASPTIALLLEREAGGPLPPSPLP

[12] = target: PICK1, Q9NRD5
PICK1, Q9NRD5, sequence (Q9NRD5 17-115): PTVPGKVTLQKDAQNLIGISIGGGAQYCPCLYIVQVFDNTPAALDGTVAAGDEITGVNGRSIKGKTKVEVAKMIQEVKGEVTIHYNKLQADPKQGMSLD

[13] = target: TJP2_1, Q9UDY2
TJP2_1, Q9UDY2, sequence (Q9UDY2 24-128): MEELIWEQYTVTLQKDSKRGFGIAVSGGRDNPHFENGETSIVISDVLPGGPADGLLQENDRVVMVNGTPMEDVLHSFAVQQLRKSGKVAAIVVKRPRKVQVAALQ

[14] = target: NHERF4_1, Q86UT5-2
NHERF4_1, Q86UT5-2, sequence (Q86UT5 other isoform, or with tags, fused parts or gaps): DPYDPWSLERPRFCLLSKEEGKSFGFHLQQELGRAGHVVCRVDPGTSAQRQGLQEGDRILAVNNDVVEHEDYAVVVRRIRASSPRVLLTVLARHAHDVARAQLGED

[15] = target: LNX1_1, Q8TBB1
LNX1_1, Q8TBB1, sequence (Q8TBB1 261-371): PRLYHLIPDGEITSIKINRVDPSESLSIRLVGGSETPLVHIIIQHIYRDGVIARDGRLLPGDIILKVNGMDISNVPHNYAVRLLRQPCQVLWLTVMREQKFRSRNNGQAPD

[16] = target: PDZRN4_1, Q6ZMN7
PDZRN4_1, Q6ZMN7, sequence (Q6ZMN7 213-318): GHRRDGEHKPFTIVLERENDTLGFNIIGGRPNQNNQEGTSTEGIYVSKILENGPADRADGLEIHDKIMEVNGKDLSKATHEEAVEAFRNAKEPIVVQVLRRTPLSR

[17] = target: FRMPD3, Q5JV73
FRMPD3, Q5JV73, sequence (Q5JV73 12-100): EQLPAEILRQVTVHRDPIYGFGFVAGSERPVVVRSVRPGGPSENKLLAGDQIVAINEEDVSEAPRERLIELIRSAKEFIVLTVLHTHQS

[18] = target: T7, LRRC7, Q96NW7
T7 sequence (Q96NW7 1440-1537, limits assumed, looked up): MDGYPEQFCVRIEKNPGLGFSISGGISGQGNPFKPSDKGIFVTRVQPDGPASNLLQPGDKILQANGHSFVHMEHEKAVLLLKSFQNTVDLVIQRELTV

[19] = target: FRMPD2_3, Q68DX3
FRMPD2_3, Q68DX3, sequence (Q68DX3 1073-1166): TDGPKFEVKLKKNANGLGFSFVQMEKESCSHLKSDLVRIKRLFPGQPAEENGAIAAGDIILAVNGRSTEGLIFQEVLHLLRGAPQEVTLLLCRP

[20] = target: HTRA2, O43464
HTRA2, O43464, sequence (O43464 355-458): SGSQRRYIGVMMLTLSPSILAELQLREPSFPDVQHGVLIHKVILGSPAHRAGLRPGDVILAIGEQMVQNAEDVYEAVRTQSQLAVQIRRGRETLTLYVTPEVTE

[21] = target: MAGI3_2, Q5TCQ9
MAGI3_2, Q5TCQ9, sequence (Q5TCQ9 398-503): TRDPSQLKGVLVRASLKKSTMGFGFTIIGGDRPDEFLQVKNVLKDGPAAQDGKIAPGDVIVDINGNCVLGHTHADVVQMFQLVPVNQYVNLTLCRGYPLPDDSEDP

[22] = target: Inadl_5, Q8NI35
Inadl_5, Q8NI35, sequence (Q8NI35 673-780): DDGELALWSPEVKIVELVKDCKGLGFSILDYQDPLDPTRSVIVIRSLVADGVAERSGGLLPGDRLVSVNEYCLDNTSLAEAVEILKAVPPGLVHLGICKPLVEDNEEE

[23] = target: T8, SHANK1, Q9Y566
T8 sequence (Q9Y566 658-767, limits assumed, looked up): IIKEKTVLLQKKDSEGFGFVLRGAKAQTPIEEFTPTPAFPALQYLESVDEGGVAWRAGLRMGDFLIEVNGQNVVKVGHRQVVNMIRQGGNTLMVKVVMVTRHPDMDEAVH

[24] = target: IL16_3, Q14005
IL16_3, Q14005, sequence (Q14005 1107-1207): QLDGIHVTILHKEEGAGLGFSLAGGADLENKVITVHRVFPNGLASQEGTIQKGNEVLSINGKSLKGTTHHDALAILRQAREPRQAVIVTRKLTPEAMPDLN

[25] = target: T9, SNTG2, Q9NY99
T9 sequence (Q9NY99 68-166, limits assumed, looked up): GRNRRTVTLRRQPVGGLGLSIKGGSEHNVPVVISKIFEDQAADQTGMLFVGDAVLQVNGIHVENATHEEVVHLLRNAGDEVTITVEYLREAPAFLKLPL

[26] = target: DLG1_2, Q12959
DLG1_2, Q12959, sequence (Q12959 314-412): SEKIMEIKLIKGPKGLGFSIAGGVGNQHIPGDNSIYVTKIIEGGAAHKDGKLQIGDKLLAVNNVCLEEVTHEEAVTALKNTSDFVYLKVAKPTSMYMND

[27] = target: DLG4_2, P78352
DLG4_2, P78352, sequence (P78352 155-259): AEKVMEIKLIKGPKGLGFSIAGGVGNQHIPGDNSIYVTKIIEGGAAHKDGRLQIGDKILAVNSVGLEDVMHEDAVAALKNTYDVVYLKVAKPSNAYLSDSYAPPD

[28] = target: FRMPD2_1, Q68DX3
FRMPD2_1, Q68DX3, sequence (Q68DX3 770-861): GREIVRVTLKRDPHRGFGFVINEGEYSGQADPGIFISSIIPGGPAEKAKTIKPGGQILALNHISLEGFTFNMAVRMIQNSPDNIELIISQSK

[29] = plain residues with an end cap or a label only (N-terminal biotin on a linker: ado-ado)
[30] = modified: phospho on T at position -2 from the C-terminal residue

B1: ZSCAN30, Q86W11 (peptide)
chain: MQHQRTHTRV
**Q.** Which results are given for B1?
**A.** pKd [1, 29]: 3.81; pKd [2, 29]: below the threshold; pKd [3, 29]: 4.16; pKd [4, 29]: below the threshold; pKd [5, 29]: below the threshold; pKd [6, 29]: below the threshold; pKd [7, 29]: 3.72; pKd [8, 29]: below the threshold; pKd [9, 29]: 4.28; pKd [10, 29]: below the threshold; pKd [11, 29]: 3.79; pKd [12, 29]: below the threshold; pKd [13, 29]: 4.16; pKd [14, 29]: below the threshold; pKd [15, 29]: 3.49; pKd [16, 29]: below the threshold; pKd [17, 29]: below the threshold; pKd [18, 29]: below the threshold; pKd [19, 29]: 3.5; pKd [20, 29]: below the threshold; pKd [21, 29]: 5.37; pKd [22, 29]: below the threshold; pKd [23, 29]: 4.08; pKd [24, 29]: below the threshold; pKd [25, 29]: 3.86; pKd [26, 29]: 5.12; pKd [27, 29]: 4.95; pKd [28, 29]: 3.88

B2: HPV16-E6_-2P, P03126 (peptide)
chain: SSRTRRETQL
**Q.** For B2, which pKd [1, 30] is on record?
**A.** below the threshold

**Q.** What about the pKd [2, 30] of the same binder?
**A.** below the threshold

**Q.** And the pKd [3, 30]?
**A.** below the threshold

**Q.** What about the pKd [4, 30] of the same binder?
**A.** 3.94

**Q.** And the pKd [5, 30]?
**A.** below the threshold

**Q.** What about the pKd [6, 30] of the same binder?
**A.** 3.88

**Q.** What about the pKd [7, 30] of the same binder?
**A.** below the threshold

**Q.** And the pKd [8, 30]?
**A.** below the threshold

**Q.** What about the pKd [9, 30] of the same binder?
**A.** below the threshold

**Q.** What about the pKd [10, 30] of the same binder?
**A.** below the threshold

**Q.** What about the pKd [11, 30] of the same binder?
**A.** below the threshold

**Q.** And the pKd [12, 30]?
**A.** below the threshold

**Q.** And the pKd [13, 30]?
**A.** below the threshold

**Q.** What about the pKd [14, 30] of the same binder?
**A.** 4.37

**Q.** And the pKd [15, 30]?
**A.** below the threshold

**Q.** And the pKd [16, 30]?
**A.** below the threshold

**Q.** And the pKd [17, 30]?
**A.** below the threshold

**Q.** What about the pKd [18, 30] of the same binder?
**A.** below the threshold

**Q.** And the pKd [19, 30]?
**A.** below the threshold

**Q.** And the pKd [20, 30]?
**A.** below the threshold

**Q.** What about the pKd [21, 30] of the same binder?
**A.** below the threshold

**Q.** What about the pKd [22, 30] of the same binder?
**A.** below the threshold

**Q.** What about the pKd [23, 30] of the same binder?
**A.** below the threshold

**Q.** What about the pKd [24, 30] of the same binder?
**A.** below the threshold

**Q.** What about the pKd [25, 30] of the same binder?
**A.** below the threshold

**Q.** What about the pKd [26, 30] of the same binder?
**A.** below the threshold

**Q.** And the pKd [27, 30]?
**A.** below the threshold

**Q.** What about the pKd [28, 30] of the same binder?
**A.** below the threshold

B3: SCN8A, Q9UQD0 (peptide)
chain: RQKEVRESKC
**Q.** For B3, which pKd [1, 29] is on record?
**A.** 4.1

**Q.** What about the pKd [2, 29] of the same binder?
**A.** below the threshold

**Q.** What about the pKd [3, 29] of the same binder?
**A.** 3.95

**Q.** And the pKd [4, 29]?
**A.** 3.84

**Q.** And the pKd [5, 29]?
**A.** below the threshold

**Q.** And the pKd [6, 29]?
**A.** below the threshold

**Q.** And the pKd [7, 29]?
**A.** below the threshold

**Q.** What about the pKd [8, 29] of the same binder?
**A.** below the threshold

**Q.** And the pKd [9, 29]?
**A.** 4.23

**Q.** And the pKd [10, 29]?
**A.** below the threshold

**Q.** What about the pKd [11, 29] of the same binder?
**A.** 3.82

**Q.** And the pKd [12, 29]?
**A.** 4.18

**Q.** And the pKd [13, 29]?
**A.** below the threshold

**Q.** And the pKd [14, 29]?
**A.** 3.91

**Q.** And the pKd [15, 29]?
**A.** below the threshold

**Q.** What about the pKd [16, 29] of the same binder?
**A.** below the threshold

**Q.** And the pKd [17, 29]?
**A.** below the threshold

**Q.** And the pKd [18, 29]?
**A.** below the threshold

**Q.** And the pKd [19, 29]?
**A.** below the threshold

**Q.** What about the pKd [20, 29] of the same binder?
**A.** below the threshold

**Q.** What about the pKd [21, 29] of the same binder?
**A.** 4.01

**Q.** What about the pKd [22, 29] of the same binder?
**A.** below the threshold

**Q.** What about the pKd [23, 29] of the same binder?
**A.** below the threshold

**Q.** What about the pKd [24, 29] of the same binder?
**A.** below the threshold

**Q.** And the pKd [25, 29]?
**A.** 4.58

**Q.** What about the pKd [26, 29] of the same binder?
**A.** 3.55

**Q.** And the pKd [27, 29]?
**A.** 3.52

**Q.** And the pKd [28, 29]?
**A.** below the threshold

B4: TRPV6, Q9H1D0 (peptide)
chain: EDGESWEYQI
**Q.** For B4, which pKd [1, 29] is on record?
**A.** below the threshold

**Q.** And the pKd [2, 29]?
**A.** below the threshold

**Q.** And the pKd [3, 29]?
**A.** below the threshold

**Q.** What about the pKd [4, 29] of the same binder?
**A.** 3.72

**Q.** And the pKd [5, 29]?
**A.** below the threshold

**Q.** And the pKd [6, 29]?
**A.** 3.73

**Q.** And the pKd [7, 29]?
**A.** below the threshold

**Q.** And the pKd [8, 29]?
**A.** below the threshold

**Q.** What about the pKd [9, 29] of the same binder?
**A.** below the threshold

**Q.** What about the pKd [10, 29] of the same binder?
**A.** below the threshold

**Q.** What about the pKd [11, 29] of the same binder?
**A.** below the threshold

**Q.** And the pKd [12, 29]?
**A.** below the threshold

**Q.** What about the pKd [13, 29] of the same binder?
**A.** below the threshold

**Q.** And the pKd [14, 29]?
**A.** below the threshold

**Q.** And the pKd [15, 29]?
**A.** below the threshold

**Q.** What about the pKd [16, 29] of the same binder?
**A.** below the threshold

**Q.** What about the pKd [17, 29] of the same binder?
**A.** below the threshold

**Q.** What about the pKd [18, 29] of the same binder?
**A.** below the threshold

**Q.** What about the pKd [19, 29] of the same binder?
**A.** below the threshold

**Q.** What about the pKd [20, 29] of the same binder?
**A.** below the threshold

**Q.** What about the pKd [21, 29] of the same binder?
**A.** below the threshold

**Q.** What about the pKd [22, 29] of the same binder?
**A.** below the threshold

**Q.** And the pKd [23, 29]?
**A.** below the threshold

**Q.** What about the pKd [24, 29] of the same binder?
**A.** below the threshold

**Q.** What about the pKd [25, 29] of the same binder?
**A.** below the threshold

**Q.** What about the pKd [26, 29] of the same binder?
**A.** below the threshold

**Q.** What about the pKd [27, 29] of the same binder?
**A.** below the threshold

**Q.** What about the pKd [28, 29] of the same binder?
**A.** below the threshold
